{"source": "patent US12697368B2", "about": "“TSG6 polypeptide fragment for dry eye disease” (The University of Manchester, priority 2019, dated 2026)", "key": {"[1]": {"assay": "Solubility in PBS by UV spectrophotometry", "type": "physicochemical", "description": "(§1) The solubility and aggregation state of full-length TSG-6 and LINK_TSG6 in PBS were compared using UV spectrophotometry and dynamic light scattering (DLS) at a range of concentrations. […] The full-length protein had much lower solubility with less than 40% of the protein remaining in solution at 0.4, 0.8, 1.6. and 3.2 mg/ml."}, "[2]": {"assay": "Aggregation state in PBS by dynamic light scattering (DLS)", "type": "physicochemical", "description": "as §1"}, "NOD.B10.H2b mice": {"tested_on": "NOD.B10.H2b mice", "details": "recombinant TSG-6 (0.1%) topical 4 times a day, 1 week; vs 0.05% cyclosporine twice a day; cited from earlier work"}, "rat eyes": {"tested_on": "rat eyes", "details": "ethanol application and mechanical debridement; cited from earlier work"}, "[3]": {"details": "interaction is cooperative; cited from earlier work"}}}
{"substance": "full-length TSG-6: full length human recombinant TSG-6 protein (R&D Systems), ~35 kDa secreted product of TNF-stimulated gene-6", "values": [{"measurement": "protein remaining in solution", "setting": "[1]; PBS, 0.4, 0.8, 1.6 and 3.2 mg/ml", "value": "less than 40%"}, {"measurement": "solubility and stability in solution", "setting": "[1]; general statement", "value": "insoluble and prone to aggregation"}, {"measurement": "aggregation", "setting": "[2]; 0.2, 0.4, 0.8, 1.6 and 3.2 mg/ml", "value": "highly aggregated"}, {"measurement": "size of aggregates formed", "setting": "[2]; 1.6 and 3.2 mg/ml, DLS measurements out of range", "value": "greater than 25 million"}, {"measurement": "efficacy in inflammation mediated dry eye compared with cyclosporine eye drops", "setting": "NOD.B10.H2b mice", "value": "as effective"}, {"measurement": "corneal opacity as compared to a PBS control", "setting": "rat eyes", "value": "reduced"}, {"measurement": "neovascularization as compared to a PBS control", "setting": "rat eyes", "value": "reduced"}, {"measurement": "binding to HA compared with LINK_TSG6", "setting": "[3]", "value": "binds more effectively"}]}
